In experiment [1] the target is T1, mouse DLL3 (mouse, UniProt O88516 25-477, limits assumed).
T1 construct: also called mDLL3; murine DLL3
T1 sequence (looked up): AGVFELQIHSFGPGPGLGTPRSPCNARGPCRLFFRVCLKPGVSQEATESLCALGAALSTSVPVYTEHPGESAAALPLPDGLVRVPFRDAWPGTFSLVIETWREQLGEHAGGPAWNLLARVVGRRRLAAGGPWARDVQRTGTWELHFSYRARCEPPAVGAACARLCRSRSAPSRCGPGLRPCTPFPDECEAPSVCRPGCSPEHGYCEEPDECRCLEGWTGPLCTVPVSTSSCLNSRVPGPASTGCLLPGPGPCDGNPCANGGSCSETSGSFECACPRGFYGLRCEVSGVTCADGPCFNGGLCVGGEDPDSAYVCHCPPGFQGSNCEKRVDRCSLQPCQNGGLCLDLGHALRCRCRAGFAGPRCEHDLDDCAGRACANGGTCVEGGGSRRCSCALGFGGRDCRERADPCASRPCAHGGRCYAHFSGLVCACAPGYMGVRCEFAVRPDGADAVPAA
Description: ELISA.

Experiment [2] has as its target T2, DLL3 on cells (SHP-77, NCI-H82, HEK-DLL3, membrane proteome array cells) (human, UniProt Q9NYJ7 27-618).
T2 construct: whole, on cells; also called hDLL3
T2 sequence (looked up): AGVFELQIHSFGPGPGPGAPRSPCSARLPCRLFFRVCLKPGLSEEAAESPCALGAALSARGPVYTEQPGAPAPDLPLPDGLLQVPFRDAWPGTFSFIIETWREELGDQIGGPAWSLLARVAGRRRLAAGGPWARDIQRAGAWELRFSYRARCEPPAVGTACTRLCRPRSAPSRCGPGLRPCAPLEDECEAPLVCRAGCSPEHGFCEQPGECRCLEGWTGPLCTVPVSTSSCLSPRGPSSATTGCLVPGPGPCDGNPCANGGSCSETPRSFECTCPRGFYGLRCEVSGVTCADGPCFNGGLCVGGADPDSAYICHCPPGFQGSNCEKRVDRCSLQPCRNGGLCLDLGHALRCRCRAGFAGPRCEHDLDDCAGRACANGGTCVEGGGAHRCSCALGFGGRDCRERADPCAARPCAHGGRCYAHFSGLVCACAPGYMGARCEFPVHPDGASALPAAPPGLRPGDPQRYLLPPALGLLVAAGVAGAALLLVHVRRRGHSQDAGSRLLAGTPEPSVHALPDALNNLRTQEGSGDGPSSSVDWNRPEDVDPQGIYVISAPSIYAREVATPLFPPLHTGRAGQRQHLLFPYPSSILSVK
Description: flow cytometry on SHP-77 cells, Geomeans RL1-H.

Experiment [3] addresses T2, DLL3 on cells (SHP-77, NCI-H82, …). Put plainly: flow cytometry on SHP-77 cells, Geomeans RL1-H; p-SCN-Bn-DOTA conjugate against the unconjugated VHHFc. For orientation: A flow cytometer gives signals particle by particle.
Experiment [4] concerns the target T3, human DLL3 on cells (human, UniProt Q9NYJ7 27-618).
T3 sequence (looked up): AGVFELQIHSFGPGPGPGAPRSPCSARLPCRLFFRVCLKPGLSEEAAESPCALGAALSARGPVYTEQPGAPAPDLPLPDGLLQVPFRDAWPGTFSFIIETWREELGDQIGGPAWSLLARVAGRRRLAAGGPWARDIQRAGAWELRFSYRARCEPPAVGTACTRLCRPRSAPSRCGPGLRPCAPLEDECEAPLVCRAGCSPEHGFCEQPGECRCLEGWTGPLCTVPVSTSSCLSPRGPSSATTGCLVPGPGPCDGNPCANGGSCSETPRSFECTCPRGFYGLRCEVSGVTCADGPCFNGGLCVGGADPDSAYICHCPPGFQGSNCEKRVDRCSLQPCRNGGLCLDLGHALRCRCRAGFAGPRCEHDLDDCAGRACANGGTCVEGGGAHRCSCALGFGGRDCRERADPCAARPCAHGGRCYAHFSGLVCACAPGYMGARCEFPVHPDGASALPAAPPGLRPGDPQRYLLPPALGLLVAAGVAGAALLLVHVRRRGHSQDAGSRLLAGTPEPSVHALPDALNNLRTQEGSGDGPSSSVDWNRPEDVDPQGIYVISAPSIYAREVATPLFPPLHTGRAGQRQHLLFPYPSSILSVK
Description: cell-based or functional assay.

Experiment [5] deals with T2, DLL3 on cells (SHP-77, NCI-H82, …). Description: flow cytometry on SHP-77 cells, Geomeans RL1-H. The source holds these as a separate data set.

B1: 186_zu2 (Fc fusion)
chain: QVQLVESGGGLVQPGGSLRLSCAASGFDFSTYTVNWFRQAPGQGLEKVARISSTGTTTNYANSAKGRFTISRDNSKNTLYLQMNSLRAEDTAVYYCAAERFDSNYWGQGTLVTVSSEPKSSDKTHTCPPCPAPEAEGAPSVFLFPPKPKDTLMISRTPEVTCVVVDVSHEDPEVKFNWYVDGVEVHNAKTKPREEQYNSTYRVVSVLTVLHQDWLNGKEYKCKVSNKALPSSIEKTISKAKGQPREPQVYTLPPSREEMTKNQVSLTCLVKGFYPSDIAVEWESNGQPENNYKTTPPVLDSDGSFFLYSKLTVDKSRWQQGNVFSCSVMHEALHNQYTQKSLSLSPG
notes: Humanized VHH-Fc
As usually defined, the EC50 (read off the curve) is the concentration that produces a half-maximal response. On to B1, for which, in experiment [1], the binding result is “no binding”. In addition, in experiment [2], the “EC50 (read off the curve)” value was roughly 0.1 nM.

B2: 186_zu2 conjugated to p-SCN-Bn-DOTA (Fc fusion)
chain: QVQLVESGGGLVQPGGSLRLSCAASGFDFSTYTVNWFRQAPGQGLEKVARISSTGTTTNYANSAKGRFTISRDNSKNTLYLQMNSLRAEDTAVYYCAAERFDSNYWGQGTLVTVSSEPKSSDKTHTCPPCPAPEAEGAPSVFLFPPKPKDTLMISRTPEVTCVVVDVSHEDPEVKFNWYVDGVEVHNAKTKPREEQYNSTYRVVSVLTVLHQDWLNGKEYKCKVSNKALPSSIEKTISKAKGQPREPQVYTLPPSREEMTKNQVSLTCLVKGFYPSDIAVEWESNGQPENNYKTTPPVLDSDGSFFLYSKLTVDKSRWQQGNVFSCSVMHEALHNQYTQKSLSLSPG
modifications: conjugated to p-SCN-Bn-DOTA, chelator-antibody ratio of 3-5; lysine in FW2 (printed position 52)
notes: Humanized VHHFc conjugate
Regarding B2, the binding result in experiment [3] is given as “binds”.

B3: 186_zu1 conjugated to p-SCN-Bn-DOTA (Fc fusion)
chain: QVQLVESGGGLVQPGGSLRLSCAASGFDFSTYTVNWFRQAPGQGLEAVARISSTGTTTNYANSAKGRFTISRDNSKNTLYLQMNSLRAEDTAVYYCAAERFDSNYWGQGTLVTVSSEPKSSDKTHTCPPCPAPEAEGAPSVFLFPPKPKDTLMISRTPEVTCVVVDVSHEDPEVKFNWYVDGVEVHNAKTKPREEQYNSTYRVVSVLTVLHQDWLNGKEYKCKVSNKALPSSIEKTISKAKGQPREPQVYTLPPSREEMTKNQVSLTCLVKGFYPSDIAVEWESNGQPENNYKTTPPVLDSDGSFFLYSKLTVDKSRWQQGNVFSCSVMHEALHNQYTQKSLSLSPG
modifications: conjugated to p-SCN-Bn-DOTA, chelator-antibody ratio of 3-5
notes: Humanized VHHFc conjugate
For B3, in experiment [3], the “EC50 (read off the curve)” value was roughly 0.3 nM.

B4: Clone 107 VHH-Fc with H435Q Fc (Fc fusion)
chain: QVQLVESGGGLVQAGDSLRLSCVASDRTFSSYAVGWFRQAPGKEREFVAAISWNGGRTLYTDSVTGRFTISRDNAKSTVYLQMNGLKPEDTAVYYCAARPAAPTRRLEYDYWGQGTQVTVSSAPELLGGPSVFLFPPKPKDTLMISRTPEVTCVVVDVSHEDPEVKFNWYVDGVEVHNAKTKPREEQYNSTYRVVSVLTVLHQDWLNGKEYKCKVSNKALPAPIEKTISKAKGQPREPQVYTLPPSREEMTKNQVSLTCLVKGFYPSDIAVEWESNGQPENNYKTTPPVLDSDGSFFLYSKLTVDKSRWQQGNVFSCSVMHEALHNQYTQKSLSLSPG
For B4, the “H435Q-Fc SHP-77 Internalization FOI” value in experiment [4] came out at 1.27 FOI.

B5: 126_zu1 Conjugate (Fc fusion)
chain: QVQLVESGGGLVQPGGSLRLSCAASGITFSMYSMSWFRQAPGQGLEAVAATTTFGSTNYADSVKGRFTISRDNSKNTLYLQMNSLRAEDTAVYYCAARFTSEEYWGQGTLVTVSSEPKSSDKTHTCPPCPAPEAEGAPSVFLFPPKPKDTLMISRTPEVTCVVVDVSHEDPEVKFNWYVDGVEVHNAKTKPREEQYNSTYRVVSVLTVLHQDWLNGKEYKCKVSNKALPSSIEKTISKAKGQPREPQVYTLPPSREEMTKNQVSLTCLVKGFYPSDIAVEWESNGQPENNYKTTPPVLDSDGSFFLYSKLTVDKSRWQQGNVFSCSVMHEALHNQYTQKSLSLSPG
modifications: conjugated to p-SCN-Bn-DOTA, chelator-antibody ratio of 3-5 (lysine-based conjugation)
With B5, the binding result in experiment [3] is on record as “binds”.

B6: 126_zu2 Conjugate (Fc fusion)
chain: QVQLVESGGGLVQPGGSLRLSCAASGITFSMYSMSWFRQAPGQGLELVAATTTFGSTNYADSVKGRFTISRDNSKNTLYLQMNSLRAEDTAVYYCAARFTSEEYWGQGTLVTVSSEPKSSDKTHTCPPCPAPEAEGAPSVFLFPPKPKDTLMISRTPEVTCVVVDVSHEDPEVKFNWYVDGVEVHNAKTKPREEQYNSTYRVVSVLTVLHQDWLNGKEYKCKVSNKALPSSIEKTISKAKGQPREPQVYTLPPSREEMTKNQVSLTCLVKGFYPSDIAVEWESNGQPENNYKTTPPVLDSDGSFFLYSKLTVDKSRWQQGNVFSCSVMHEALHNQYTQKSLSLSPG
modifications: conjugated to p-SCN-Bn-DOTA, chelator-antibody ratio of 3-5 (lysine-based conjugation)
For the molecule B6, in experiment [3], the concentration giving a half-maximal response (EC50 (read off the curve)) is roughly 0.1 nM.

B7: Clone 100 VHH-Fc with H435Q Fc (Fc fusion)
chain: QVQLVESGGGSVQPGGSLRLSCAASGIVFNSDVMGWYRQVPGKPRELVATITGGGSTNYATSVKGRFTISRDNAKNTVYLQMNSLRPEDTAVYYCNGRRGDSMLAFWAQGTQVTVSSAPELLGGPSVFLFPPKPKDTLMISRTPEVTCVVVDVSHEDPEVKFNWYVDGVEVHNAKTKPREEQYNSTYRVVSVLTVLHQDWLNGKEYKCKVSNKALPAPIEKTISKAKGQPREPQVYTLPPSREEMTKNQVSLTCLVKGFYPSDIAVEWESNGQPENNYKTTPPVLDSDGSFFLYSKLTVDKSRWQQGNVFSCSVMHEALHNQYTQKSLSLSPG
In the case of B7, the “H435Q-Fc SHP-77 Internalization FOI” value in experiment [4] came to 1.19 FOI.

B8: 107_zu2 Conjugate (Fc fusion)
chain: QVQLVESGGGLVQPGGSLRLSCAASDRTFSSYAVGWFRQAPGQGLEFVAAISWNGGRTLYTDSVTGRFTISRDNSKNTLYLQMNSLRAEDTAVYYCAARPAAPTRRLEYDYWGQGTLVTVSSEPKSSDKTHTCPPCPAPEAEGAPSVFLFPPKPKDTLMISRTPEVTCVVVDVSHEDPEVKFNWYVDGVEVHNAKTKPREEQYNSTYRVVSVLTVLHQDWLNGKEYKCKVSNKALPSSIEKTISKAKGQPREPQVYTLPPSREEMTKNQVSLTCLVKGFYPSDIAVEWESNGQPENNYKTTPPVLDSDGSFFLYSKLTVDKSRWQQGNVFSCSVMHEALHNQYTQKSLSLSPG
modifications: conjugated to p-SCN-Bn-DOTA, chelator-antibody ratio of 3-5 (lysine-based conjugation)
For B8, in experiment [3], the “EC50 (read off the curve)” value was roughly 0.1 nM.

B9: Clone 24 VHH-Fc with H435Q Fc (Fc fusion)
chain: QVQYVESGGGLVQPGGSLRLSCAASGFTFSSYRINWYRQPPGKGRELVGSITDTGSTNYADSVKGRFTISRDNAKNTVYLQMSSLKPEDTAVYYCRAPTIAAYWGQGTQVTVSSAPELLGGPSVFLFPPKPKDTLMISRTPEVTCVVVDVSHEDPEVKFNWYVDGVEVHNAKTKPREEQYNSTYRVVSVLTVLHQDWLNGKEYKCKVSNKALPAPIEKTISKAKGQPREPQVYTLPPSREEMTKNQVSLTCLVKGFYPSDIAVEWESNGQPENNYKTTPPVLDSDGSFFLYSKLTVDKSRWQQGNVFSCSVMHEALHNQYTQKSLSLSPG
For the molecule B9, in experiment [4], the “H435Q-Fc SHP-77 Internalization FOI” value was 1.19 FOI.

B10: 126 (Fc fusion)
chain: QVQLVESGGGMVQPGGSLRLSCAASGITFSMYSMSWYRQPPGKQRELVAATTTFGSTNYADSVKGRFTISRDNAKNTVYLQMNSLKPEDTAVYLCNARFTSEEYWGQGTQVTVSSEPKSSDKTHTCPPCPAPEAEGAPSVFLFPPKPKDTLMISRTPEVTCVVVDVSHEDPEVKFNWYVDGVEVHNAKTKPREEQYNSTYRVVSVLTVLHQDWLNGKEYKCKVSNKALPSSIEKTISKAKGQPREPQVYTLPPSREEMTKNQVSLTCLVKGFYPSDIAVEWESNGQPENNYKTTPPVLDSDGSFFLYSKLTVDKSRWQQGNVFSCSVMHEALHNQYTQKSLSLSPG
notes: Parental camelid VHH-Fc
On to B10, for which the “EC50 (read off the curve)” value in experiment [2] and in experiment [5] was roughly 0.1 nM in each case.

B11: 126 Conjugate (Fc fusion)
chain: QVQLVESGGGMVQPGGSLRLSCAASGITFSMYSMSWYRQPPGKQRELVAATTTFGSTNYADSVKGRFTISRDNAKNTVYLQMNSLKPEDTAVYLCNARFTSEEYWGQGTQVTVSSEPKSSDKTHTCPPCPAPEAEGAPSVFLFPPKPKDTLMISRTPEVTCVVVDVSHEDPEVKFNWYVDGVEVHNAKTKPREEQYNSTYRVVSVLTVLHQDWLNGKEYKCKVSNKALPSSIEKTISKAKGQPREPQVYTLPPSREEMTKNQVSLTCLVKGFYPSDIAVEWESNGQPENNYKTTPPVLDSDGSFFLYSKLTVDKSRWQQGNVFSCSVMHEALHNQYTQKSLSLSPG
modifications: conjugated to p-SCN-Bn-DOTA, chelator-antibody ratio of 3-5 (lysine-based conjugation)
Regarding B11, the concentration for a half-maximal effect (EC50 (read off the curve)) in experiment [3] is roughly 0.2 nM.

These data come from US20250051476A1 (ABDERA THERAPEUTICS, published 2025).
